# Laboratory results reported in publication PMC10786891, “Massively parallel profiling of RNA-targeting CRISPR-Cas13d”.
# Residue numbers refer to the chain shown, from its start. In names and notes the source's numbering stands.
# T1: EsCas13d, nuclease-dead (Eubacterium siraeum, UniProt B0MS50, R295A;H300A;R849A;H854A)
# T1 sequence: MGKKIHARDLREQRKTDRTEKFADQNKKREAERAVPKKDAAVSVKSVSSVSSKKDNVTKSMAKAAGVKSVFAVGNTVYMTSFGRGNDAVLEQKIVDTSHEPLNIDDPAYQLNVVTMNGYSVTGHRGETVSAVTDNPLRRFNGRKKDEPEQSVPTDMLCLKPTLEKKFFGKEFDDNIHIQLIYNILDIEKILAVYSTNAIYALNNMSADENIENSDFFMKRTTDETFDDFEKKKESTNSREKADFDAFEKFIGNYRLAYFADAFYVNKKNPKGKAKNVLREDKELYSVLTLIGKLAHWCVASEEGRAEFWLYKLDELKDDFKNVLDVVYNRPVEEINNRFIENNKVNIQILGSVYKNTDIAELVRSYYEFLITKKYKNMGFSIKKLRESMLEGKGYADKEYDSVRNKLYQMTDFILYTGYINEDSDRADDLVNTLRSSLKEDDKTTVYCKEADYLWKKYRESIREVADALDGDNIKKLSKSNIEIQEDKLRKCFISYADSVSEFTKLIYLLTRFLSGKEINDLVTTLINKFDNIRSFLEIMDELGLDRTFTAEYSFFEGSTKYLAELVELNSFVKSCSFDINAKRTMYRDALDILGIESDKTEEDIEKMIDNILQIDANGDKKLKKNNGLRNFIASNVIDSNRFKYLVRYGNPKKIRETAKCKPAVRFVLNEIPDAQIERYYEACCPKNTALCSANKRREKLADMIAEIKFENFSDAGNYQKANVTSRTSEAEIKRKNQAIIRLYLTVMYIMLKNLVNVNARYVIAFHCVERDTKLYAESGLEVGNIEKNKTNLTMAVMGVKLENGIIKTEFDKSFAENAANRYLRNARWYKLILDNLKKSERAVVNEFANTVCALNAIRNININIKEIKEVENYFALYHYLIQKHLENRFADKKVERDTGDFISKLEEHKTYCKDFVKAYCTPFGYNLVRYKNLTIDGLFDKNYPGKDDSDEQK
# B1: target 1 insG 3' of 16,insG 3' of 10 (mixed)
# RNA 1: CACCCGUGCAAAAAUGCAGGGGUCUAAAACUGAGCGGAUAACCUCUCUAUGG
# RNA 2: GGGAAUGGAUCCACAUCUACGAAUUCGUACCAUAGAGGAGGUUGAUCCGCUCACCGAGAUCGGAAGAGCACACGU
# B2: target 1 insG 3' of 18,insC 3' of 1 (mixed)
# RNA 1: B1 RNA 1
# RNA 2: GGGAAUGGAUCCACAUCUACGAAUUCGUACCAUAGGAGAGGUUAUCCGCUCACCCGAGAUCGGAAGAGCACACGU
# B3: target 1 complement block 3-12 (mixed)
# RNA 1: B1 RNA 1
# RNA 2: GGGAAUGGAUCCACAUCUACGAAUUCGUACCAUAGAGAGCAAUAGGCGACACCGAGAUCGGAAGAGCACACGU
# B4: target 1 insA 3' of 22,insG 3' of 22 (mixed)
# RNA 1: B1 RNA 1
# RNA 2: B1 RNA 2 with C31A, A32G, U33C, G35U, G38A, A39G, G40A, U42G, G44U
# B5: target 1 insU 3' of 4,insC 3' of 3 (mixed)
# RNA 1: B1 RNA 1
# RNA 2: GGGAAUGGAUCCACAUCUACGAAUUCGUACCAUAGAGAGGUUAUCCGCUUCCACCGAGAUCGGAAGAGCACACGU
# B6: target 1 insG 3' of 18,insG 3' of 1 (mixed)
# RNA 1: B1 RNA 1
# RNA 2: B2 RNA 2 with C53G
# B7: target 1 A1C,G12C (mixed)
# RNA 1: B1 RNA 1
# RNA 2: GGGAAUGGAUCCACAUCUACGAAUUCGUACCAUAGAGAGCUUAUCCGCUCCCCGAGAUCGGAAGAGCACACGU
# B8: target 1 insU 3' of 18,insG 3' of 9 (mixed)
# RNA 1: B1 RNA 1
# RNA 2: B1 RNA 2 with G35U, A36G, G37A, G44A, A45G
# B9: target 1 C6G,A9U (mixed)
# RNA 1: B1 RNA 1
# RNA 2: B7 RNA 2 with C40G, A43U, C46G, C51A
# B10: target 1 A1U,C6U (mixed)
# RNA 1: B1 RNA 1
# RNA 2: B7 RNA 2 with C40G, C46U, C51U
# B11: target 1 insG 3' of 9,insA 3' of 8 (mixed)
# RNA 1: B1 RNA 1
# RNA 2: B1 RNA 2 with G38A, A39G, G41U, U43A, A45U, U46A
# B12: target 1 insU 3' of 20,insC 3' of 3 (mixed)
# RNA 1: B1 RNA 1
# RNA 2: B2 RNA 2 with A34U, G35A, A52C, C53A
# B13: target 1 insG 3' of 19,insC 3' of 9 (mixed)
# RNA 1: B1 RNA 1
# RNA 2: B1 RNA 2 with A34G, G35A, A36G, G37A, G44A, A45C
# B14: target 1 A9C,C22U (mixed)
# RNA 1: B1 RNA 1
# RNA 2: B7 RNA 2 with C30U, C40G, A43C, C51A
# B15: target 1 insC 3' of 18,insU 3' of 7 (mixed)
# RNA 1: B1 RNA 1
# RNA 2: B1 RNA 2 with G35C, A36G, G37A, G44A, A45U, U46C, C47U
# B16: target 1 insA 3' of 19,insU 3' of 6 (mixed)
# RNA 1: B1 RNA 1
# RNA 2: B1 RNA 2 with G35A, A36G, G37A, G44A, A45U, U46C, C48U
# B17: target 1 insC 3' of 22,insU 3' of 1 (mixed)
# RNA 1: B1 RNA 1
# RNA 2: B2 RNA 2 with A32C, U33A, A34U, G35A, C53U
# B18: target 1 A1U,G12C (mixed)
# RNA 1: B1 RNA 1
# RNA 2: B7 RNA 2 with C51U
# B19: target 1 insC 3' of 17,insA 3' of 17 (mixed)
# RNA 1: B1 RNA 1
# RNA 2: B1 RNA 2 with A36C, G37A, G38A, A39G, G40A, U42G, G44U
# B20: target 1 insU 3' of 14,insC 3' of 10 (mixed)
# RNA 1: B1 RNA 1
# RNA 2: B1 RNA 2 with G38A, A39U, G44C
# B21: target 1 insU 3' of 15,insA 3' of 13 (mixed)
# RNA 1: B1 RNA 1
# RNA 2: B1 RNA 2 with G38U, G41A, U42G, G44U
# B22: target 1 insA 3' of 6 (mixed)
# RNA 1: B1 RNA 1
# RNA 2: GGGAAUGGAUCCACAUCUACGAAUUCGUACCAUAGAGAGGUUAUCCAGCUCACCGAGAUCGGAAGAGCACACGU
# B23: target 1 insG 3' of 16,insU 3' of 9 (mixed)
# RNA 1: B1 RNA 1
# RNA 2: B1 RNA 2 with G44A, A45U
# B24: target 1 insA 3' of 15,insC 3' of 12 (mixed)
# RNA 1: B1 RNA 1
# RNA 2: B1 RNA 2 with G38A, U42C, G44U
# B25: target 1 insG 3' of 16,insG 3' of 16 (mixed)
# RNA 1: B1 RNA 1
# RNA 2: B1 RNA 2 with A39G, G40A, U42G, G44U
# B26: target 1 U11A,G12C (mixed)
# RNA 1: B1 RNA 1
# RNA 2: B7 RNA 2 with U41A, C51A
# B27: target 1 insA 3' of 21,insA 3' of 12 (mixed)
# RNA 1: B1 RNA 1
# RNA 2: B1 RNA 2 with U33A, A34U, G35A, A36G, G37A, U42A, G44U
# B28: target 1 U8A,G13U (mixed)
# RNA 1: B1 RNA 1
# RNA 2: B7 RNA 2 with G39U, C40G, U44A, C51A
# B29: target 1 insA 3' of 19,insU 3' of 13 (mixed)
# RNA 1: B1 RNA 1
# RNA 2: B1 RNA 2 with G35A, A36G, G37A, G41U, U42G, G44U
# B30: target 1 insU 3' of 7,insA 3' of 7 (mixed)
# RNA 1: B1 RNA 1
# RNA 2: B5 RNA 2 with C46U, G47A, U49G, U50C, C51U
# B31: target 1 A20U,C22A (mixed)
# RNA 1: B1 RNA 1
# RNA 2: B7 RNA 2 with C30A, A32U, C40G, C51A
# B32: target 1 G12C (mixed)
# RNA 1: B1 RNA 1
# RNA 2: B7 RNA 2 with C51A
# B33: target 1 A1G,G12C (mixed)
# RNA 1: B1 RNA 1
# RNA 2: B7 RNA 2 with C51G
# B34: target 1 C7U,C21A (mixed)
# RNA 1: B1 RNA 1
# RNA 2: B7 RNA 2 with C31A, C40G, C45U, C51A
# Target: T1, EsCas13d, nuclease-dead
# Experiment: crRNA (strand 1, pre-loaded); Mg2+; 40 mM Tris-HCl pH 7.5, 150 mM NaCl, 6 mM MgCl2, 1 mM DTT, 0.1% Tween-20, 0.2 mg/ml BSA; 25 C; 10 min per concentration, then washed
# Conditions: tags: His6-TwinStrep-SUMO cleaved; N-terminal SNAP kept (SNAP-Surface 488); label: 3' end held by stalled T7 RNA polymerase
row,Binder,Kd [nM]
1,B1,31.2 ± 2.2
2,B2,52 ± 4
3,B3,14.4 ± 0.5
4,B4,15.2 ± 0.9
5,B5,76 ± 22
6,B6,55 ± 10
7,B7,19 ± 2.1
8,B8,67 ± 10
9,B9,6.92 ± 0.27
10,B10,11.4 ± 0.9
11,B11,19.6 ± 1
12,B12,12.9 ± 1.3
13,B13,78 ± 10
14,B14,54 ± 12
15,B15,67 ± 5
16,B16,22.9 ± 1.6
17,B17,20.6 ± 1.9

row,Binder,Kd [nM]
1,B18,17.5 ± 1.7
2,B19,20.3 ± 1.5
3,B20,39 ± 10
4,B21,10.2 ± 0.7
5,B22,15 ± 1.3
6,B23,28.9 ± 2.2
7,B24,31 ± 6
8,B25,22.5 ± 1.4
9,B26,7.59 ± 0.28
10,B27,48 ± 5
11,B28,53 ± 8
12,B29,35 ± 13
13,B30,7.75 ± 0.3
14,B31,23.9 ± 2.8
15,B32,8.3 ± 0.7
16,B33,12.2 ± 0.9
17,B34,24.7 ± 2.5
